Target: HIV-1 reverse transcriptase p66 (HIV-1)
Assay: SEC

## HIV-1 reverse transcriptase p66 (enzyme)
  stoichiometry N: 2
